In patent US20230140293A1:

What was measured:
[1] = target: HIV-1 CH0505TF.G458Y Env on Env-pseudotyped virus produced in 293T cells (HIV-1); assay: cell-based or functional assay
[2] = target: HIV-1 CH0505TF (CH505 transmitted/founder) Env on Env-pseudotyped virus produced in 293T cells (HIV-1); assay: cell-based or functional assay
[3] = target: HIV-1 CH0505TF.N280D Env on Env-pseudotyped virus produced in 293T cells (HIV-1); assay: cell-based or functional assay
[4] = target: HIV-1 CH0505TF.S365P Env on Env-pseudotyped virus produced in 293T cells (HIV-1); assay: cell-based or functional assay
[5] = target: HIV-1 Env 426c.DM (N460D.N463D), Env-pseudotyped virus produced in 293T cells (HIV-1 clade C strain 426c); assay: cell-based or functional assay
[6] = target: CH0505TF.gly3.461 Env, Env-pseudotyped virus produced in 293T cells (HIV-1); assay: cell-based or functional assay
[7] = target: HIV-1 clade C strain 426c Env on Env-pseudotyped virus produced in 293s/GnTI-/- cells (Man5-enrichment) (HIV-1); assay: cell-based or functional assay
[8] = target: CH0505TF.gly4 Env, pseudotyped virus produced in 293S GnTI- cells (HIV-1); assay: cell-based or functional assay
[9] = target: CH0505TF.gly3.197 Env, pseudotyped virus produced in 293S GnTI- cells (HIV-1); assay: cell-based or functional assay
[10] = target: HIV-1 Env 426c.TM4 (S278R.G471S.N460D.N463D), Env-pseudotyped virus produced in 293T cells (HIV-1 clade C strain 426c); assay: cell-based or functional assay
[11] = target: HIV-1 426c.DM (N460D/N463D) Env on Env-pseudotyped virus produced in 293T cells (HIV-1); assay: cell-based or functional assay
[12] = target: CH0505TF.gly3.461 Env, pseudotyped virus produced in 293S GnTI- cells (HIV-1); assay: cell-based or functional assay
[13] = target: HIV-1 426c.SM (N276D) Env on Env-pseudotyped virus produced in 293T cells (HIV-1); assay: cell-based or functional assay
[14] = target: HIV-1 426c.DM (N460D/N463D) Env on Env-pseudotyped virus produced in 293s/GnTI-/- cells (Man5-enrichment) (HIV-1); assay: cell-based or functional assay
[15] = target: HIV-1 426c.TM (N276D/N460D/N463D) Env on Env-pseudotyped virus produced in 293T cells (HIV-1); assay: cell-based or functional assay
[16] = target: HIV-1 426c.SM (N276D) Env on Env-pseudotyped virus produced in 293s/GnTI-/- cells (Man5-enrichment) (HIV-1); assay: cell-based or functional assay
[17] = target: CH0505TF.G458Y Env, Env-pseudotyped virus produced in 293T cells (HIV-1); assay: cell-based or functional assay
[18] = target: HIV-1 Env 426c, Env-pseudotyped virus produced in 293S GnTI- cells (Man5-enriched) (HIV-1 clade C strain 426c); assay: cell-based or functional assay
[19] = target: CH0505TF Env, Env-pseudotyped virus produced in 293T cells (HIV-1); assay: cell-based or functional assay
[20] = target: HIV-1 clade C strain 426c Env on Env-pseudotyped virus produced in 293T cells (HIV-1); assay: cell-based or functional assay
[21] = target: HIV-1 Env 426c.TM4 (S278R.G471S.N460D.N463D), Env-pseudotyped virus produced in 293S GnTI- cells (Man5-enriched) (HIV-1 clade C strain 426c); assay: cell-based or functional assay
[22] = target: HIV-1 Env 426c.TM (N276D.N460D.N463D), Env-pseudotyped virus produced in 293S GnTI- cells (Man5-enriched) (HIV-1 clade C strain 426c); assay: cell-based or functional assay
[23] = target: CH0505TF.gly3.276 Env, Env-pseudotyped virus produced in 293T cells (HIV-1); assay: cell-based or functional assay
[24] = target: HIV-1 Env 426c.SM (N276D), Env-pseudotyped virus produced in 293S GnTI- cells (Man5-enriched) (HIV-1 clade C strain 426c); assay: cell-based or functional assay
[25] = target: CH0505TF.gly3.276 Env, pseudotyped virus produced in 293S GnTI- cells (HIV-1); assay: cell-based or functional assay
[26] = target: CH0505TF.G458Y Env, pseudotyped virus produced in 293S GnTI- cells (HIV-1); assay: cell-based or functional assay
[27] = target: HIV-1 Env 426c.DM (N460D.N463D), Env-pseudotyped virus produced in 293S GnTI- cells (Man5-enriched) (HIV-1 clade C strain 426c); assay: cell-based or functional assay
[28] = target: CH0505TF.gly3.197 Env, Env-pseudotyped virus produced in 293T cells (HIV-1); assay: cell-based or functional assay
[29] = target: HIV-1 426c.TM (N276D/N460D/N463D) Env on Env-pseudotyped virus produced in 293s/GnTI-/- cells (Man5-enrichment) (HIV-1); assay: cell-based or functional assay
[30] = target: CH0505.w4.3 Env, Env-pseudotyped virus produced in 293T cells (HIV-1); assay: cell-based or functional assay
[31] = target: HIV-1 Env 426c.SM (N276D), Env-pseudotyped virus produced in 293T cells (HIV-1 clade C strain 426c); assay: cell-based or functional assay
[32] = target: CH0505TF.gly4 Env, Env-pseudotyped virus produced in 293T cells (HIV-1); assay: cell-based or functional assay
[33] = target: HIV-1 Env 426c, Env-pseudotyped virus produced in 293T cells (HIV-1 clade C strain 426c); assay: cell-based or functional assay
[34] = target: HIV-1 Env 426c.TM (N276D.N460D.N463D), Env-pseudotyped virus produced in 293T cells (HIV-1 clade C strain 426c); assay: cell-based or functional assay
[35] = target: CH0505TF Env, pseudotyped virus produced in 293S GnTI- cells (HIV-1); assay: cell-based or functional assay
[36] = target: CH505 w030.21 gp120 (HIV-1); assay: ELISA, gp120 on plate
[37] = target: CH505 w100.B6 gp120 (HIV-1); assay: ELISA, gp120 on plate
[38] = target: CH505 w078.33 gp120 (HIV-1); assay: ELISA, gp120 on plate
[39] = target: CH505 w053.31 gp120 (HIV-1); assay: ELISA, gp120 on plate
[40] = target: CH505 w030.28 gp120 (HIV-1); assay: ELISA, gp120 on plate
[41] = target: CH505 M5 gp120 (HIV-1); assay: ELISA, gp120 on plate
[42] = target: CH505 transmitted/founder (TF) gp120 (HIV-1); assay: ELISA, gp120 on plate
[43] = target: CH505 w020.14 gp120 (HIV-1); assay: ELISA, gp120 on plate
[44] = target: CH505 M11 gp120 (HIV-1); assay: ELISA, gp120 on plate
[45] = target: CH505 w078.15 gp120 (HIV-1); assay: ELISA, gp120 on plate
[46] = target: CH505 w053.16 gp120 (HIV-1); assay: ELISA, gp120 on plate

3BNC117 (antibody)
IC50 (µg/ml) in TZM-bl [1]: > 25 µg/mL | IC50 (µg/ml) in TZM-bl [2]: 0.03 µg/mL | IC50 (µg/ml) in TZM-bl [3]: > 25 µg/mL | IC50 (µg/ml) in TZM-bl [4]: 0.01 µg/mL | IC50 (µg/ml) in TZM-bl [5]: 0.13 µg/mL | IC50 (µg/ml) in TZM-bl [6]: 0.002 µg/mL | ID50/IC50 in TZM-bl [7]: 0.02 µg/mL | IC50 (µg/ml) in TZM-bl [8]: 0.001 µg/mL | IC50 (µg/ml) in TZM-bl [9]: 0.004 µg/mL | IC50 (µg/ml) in TZM-bl [10]: 0.003 µg/mL | ID50/IC50 in TZM-bl [11]: 0.13 µg/mL | IC50 (µg/ml) in TZM-bl [12]: 0.002 µg/mL | ID50/IC50 in TZM-bl [13]: 0.24 µg/mL | ID50/IC50 in TZM-bl [14]: 0.006 µg/mL | ID50/IC50 in TZM-bl [15]: 0.01 µg/mL | ID50/IC50 in TZM-bl [16]: 0.01 µg/mL | IC50 (µg/ml) in TZM-bl [17]: > 25 µg/mL | IC50 (µg/ml) in TZM-bl [18]: 0.02 µg/mL | IC50 (µg/ml) in TZM-bl [19]: 0.03 µg/mL | ID50/IC50 in TZM-bl [20]: 0.2 µg/mL | IC50 (µg/ml) in TZM-bl [21]: < 0.001 µg/mL | IC50 (µg/ml) in TZM-bl [22]: 0.003 µg/mL | IC50 (µg/ml) in TZM-bl [23]: 0.001 µg/mL | IC50 (µg/ml) in TZM-bl [24]: 0.01 µg/mL | IC50 (µg/ml) in TZM-bl [25]: 0.001 µg/mL | IC50 (µg/ml) in TZM-bl [26]: 18 µg/mL | IC50 (µg/ml) in TZM-bl [27]: 0.006 µg/mL | IC50 (µg/ml) in TZM-bl [28]: 0.005 µg/mL | ID50/IC50 in TZM-bl [29]: 0.003 µg/mL | IC50 (µg/ml) in TZM-bl [30]: 0.02 µg/mL | IC50 (µg/ml) in TZM-bl [31]: 0.24 µg/mL | IC50 (µg/ml) in TZM-bl [32]: 0.001 µg/mL | IC50 (µg/ml) in TZM-bl [33]: 0.2 µg/mL | IC50 (µg/ml) in TZM-bl [34]: 0.01 µg/mL | IC50 (µg/ml) in TZM-bl [35]: 0.01 µg/mL

CH103 lineage intermediate ancestor IA1 (antibody)
log AUC [36]: 11.8 log AUC | log AUC [37]: 12.2 log AUC | log AUC [38]: 8.2 log AUC | log AUC [39]: 13.4 log AUC | log AUC [40]: 10.1 log AUC | log AUC [41]: 7 log AUC | log AUC [42]: 10.4 log AUC | log AUC [43]: 10.3 log AUC | log AUC [44]: 12.2 log AUC | log AUC [45]: 10.9 log AUC | log AUC [46]: 8.8 log AUC

CH103 lineage intermediate ancestor IA2 (antibody)
log AUC [36]: 11.5 log AUC | log AUC [37]: 12.1 log AUC | log AUC [38]: 9 log AUC | log AUC [39]: 13.3 log AUC | log AUC [40]: 11.1 log AUC | log AUC [41]: 7.8 log AUC | log AUC [42]: 10.8 log AUC | log AUC [43]: 11 log AUC | log AUC [44]: 12.7 log AUC | log AUC [45]: 11.5 log AUC | log AUC [46]: 9.3 log AUC

CH104 (antibody)
log AUC [36]: 11.3 log AUC | log AUC [37]: 11 log AUC | log AUC [38]: 9 log AUC | log AUC [39]: 13.7 log AUC | log AUC [40]: 10.7 log AUC | log AUC [41]: 9 log AUC | log AUC [42]: 10.4 log AUC | log AUC [43]: 10.4 log AUC | log AUC [44]: 12 log AUC | log AUC [45]: 10.8 log AUC | log AUC [46]: 9.9 log AUC
